Data set [1] deals with T1, insulin receptor fragment (Peptide No. 1, phosphorylated).
T1 sequence: TRNIXQTNYYRK

A further data set deals with α-2-macroglobulin. Put plainly: FITC-trypsin on α-2-macroglobulin-loaded hydrogel microspots; CCD camera.
A further data set addresses Ferritin. Put plainly: FITC-trypsin on ferritin-loaded hydrogel microspots (negative control); CCD camera.

“Leucocyte Antigene Related (LAR) protein tyrosin phosphatase”: the “loss of fluorescent signal (removal of the phosphate group, detected with anti-phosphotyrosine antibody)” value in data set [1] was “the LAR-PTPase selectively removes the phosphate group substantially completely from Peptide No. 1”.
Turning to FITC-labeled trypsin (enzyme), the Flourescence Intensity (au) is 800 au with α-2-macroglobulin and 20 au with Ferritin.
